Common to all, as to assay: cell-based or functional assay
One assay concerns the target (4C/A)-huIL-18 (human) (UniProt Q14116).
The target of assay [1] is natural human IL-18 (human) (UniProt Q14116).
A further assay addresses NEM-huIL-18 (human) (UniProt Q14116).

B1: Murine anti-human IL-18 mAb (125-2H) (antibody, from another filing, V domains shown)
VH: EIQLQQSGPELVKPGASVKVSCKASGYSFTDYFIYWVKQSHGKSLEWIGDIDPYNGDTSYNQKFRDKATLTVDQSSTTAFMHLNSLTSEDSAVYFCARGLRFWGQGTLVTVSA
VL: DIQMTQSPSSLSASLGERVSLTCRASQDIGSKLYWLQQEPDGTFKRLIYATSSLDSGVPKRFSGSRSGSDYSLTISSLESEDFVDYYCLQYASSPYTFGGGTKLAIKR
For B1, in the assay with (4C/A)-huIL-18 (human), the KG-1 neutralization potency in vitro (IC50, nM) was found to be 0.2 nM. Moreover, the WBA neutralization potency in vitro (IC50, nM) in assay [1] came out at 3 nM.

B2: 268 (antibody, V domains shown)
VH: ZVQLVESGGGVVQPGRSLRLSCAASGFTFRNYGLHWVRQAPGKGLEWVAVIWYDGSNKYYADSVKGRFTISRDNSKNTLYLQMNSLRAEDTAVYYCARESYYYYGMDVWGQGTTVTVSS
VL: EIVMTQSPATLSVSPGERATLSCRASQSFNSNLVWYQQKPGQAPRLLIYGASTRATGIPARFSGSGSGTEFTLTISSLQSEDFAVYYCQQYNNWTWTFGQGTKVEIKR
B2 came in with a KG-1 Assays (IC50, M) in the assay with NEM-huIL-18 (human) of 7e-09 M.

These data come from US20100291088A1.
